The target of this assay is TSHR on engineered CHO cells (UniProt P16473). Put plainly: flow cytometry on CHO cells engineered with TSHR, detected with anti-human IgG1 Fc-Alexa Fluor 488.

B1: M22 Fabs (control of Example 16) (Fab, V domains shown)
VH: QVQLVQSGAEVKKPGESLKISCRGSGYRFTSYWINWVRQLPGKGLEWMGRIDPTDSYTNYSPSFKGHVTVSADKSINTAYLQWSSLKASDTGMYYCARLEPGYSSTWSVNWGQGTLVTVSS
VL: LTVLTQPPSVSGAPRQRVTISCSGNSSNIGNNAVNWYQQLPGKAPKLLIYYDDQLPSGVSDRFSGSRSGTSASLAIRGLQSEDEADYYCTSWDDSLDSQLFGGGTRLTVL
Regarding B1, the concentration at which fluorescence intensity peaked stood at 30 µg/mL.

Source of the values: patent US20210188971A1.
